Values belong to the molecule of their own block, whether it stands above or below them.
Key:
[1] = target: ztnf4 (human) (UniProt Q9Y275)
[2] = target: T1, soluble I125-ztnf4 (human, UniProt Q9Y275 134-285, limits assumed, 125I label); assay: Scatchard analysis of soluble I125-ztnf4 binding to stable BHK transfectants expressing BCMA
T1 construct: also called ztnf4 sol

IC50 (read off the curve), inhibition of ztnf4-driven human B cell proliferation [1]: 0.1 mg/L
Molecule: BCMA-Ig (from UniProt Q9Y275) (Fc fusion)

IC50 (read off the curve), inhibition of ztnf4-driven human B cell proliferation [1]: 0.1 mg/L
B1: TACI-Ig soluble receptor (TACI-Fc4) (Fc fusion, part only; not given: Fc4 carrier, part only)
chain, part: MSGLGRSRRGGRSRVDQEERFPQGLWTGVAMRSCPEEQYWDPLLGTCMSCKTICNHQSQRTCAAFCRSLSCRKEQGKFYDHLLRDCISCASICGQHPKQCAYFCENKLRSPVNLPPELRRQRSGEVENNSDNSGRYQGLEHRGSEASPALPGLKLSADQVALVYS

Kd [2]: 1.25 nM
B2: BCMA expressed on cells (receptor)
chain: MLQMAGQCSQNEYFDSLLHACIPCQLRCSSNTPPLTCQRYCNASVTNSVKGTNAILWTCLGLSLIISLAVFVLMFLLRKISSEPLKDEFKNTGSGLLGMANIDLEKSRTGDEIILPRGLEYTVEECTCEDCIKSKPKVDSDHCFPLPAMEEGATILVTTKTNDYCKSLPAALSATEIEKSISAR
notes: also called BCMA-BHK
